Article PMC4134560

Biological target: BCL-xLΔC (BCL-xL construct lacking 22 C-terminal residues), Q07817
Sequence (Q07817 1-211, stated change not applied): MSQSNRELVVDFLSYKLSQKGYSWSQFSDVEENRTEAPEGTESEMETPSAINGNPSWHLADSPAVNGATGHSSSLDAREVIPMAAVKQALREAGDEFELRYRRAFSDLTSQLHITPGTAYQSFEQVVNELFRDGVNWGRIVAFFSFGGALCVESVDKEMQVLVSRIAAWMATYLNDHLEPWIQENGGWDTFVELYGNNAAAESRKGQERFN

With STKKLSECLKRIGDELDSNM (modifications not checked) [BAX BH3 domain peptide] the Kd was 500 nM.
